These results are taken from US20200330603A1, “PEPTIDES FOR RENAL THERAPY” (FRED HUTCHINSON CANCER RESEARCH CENTER, priority 2015, published 2020).

Values joined by “and” are separate entries in the source; they are usually repeats but may differ in a detail not shown here. Equal entries are not always repeated.

Data set [1] can be described thus: Whole body autoradiography of 14C labeled peptides, renal cortex and blood. Format: in vivo, mice. To be noted: for Signal ratio Kidney:Blood (3 hours) / Signal ratio Kidney:Blood (24 hours): renal cortex vs blood from the ventricle, 100 nmol iv; for Pixel density-Bkg/area (3 hours) / Pixel density-Bkg/area (24 hours): renal cortex, 100 nmol 14C labeled peptide iv. From the text: This example describes radiolabeling of peptides of this disclosure. Several knotted peptides were radiolabeled by reductive methylation with ^14C formaldehyde and sodium cyanoborohydride with standard techniques. The sequences were engineered to have the amino acids, “G” and “S” at the N terminus. See Methods in Enzymology V91:1983 p. 570 and JBC 254(11):1979 p. 4359. An excess of formaldehyde was used to ensure complete methylation (dimethylation of every free amine). The labeled peptides were isolated via solid-phase extraction on Strata-X columns (Phenomenex 8B-S100-AAK), rinsed with water with 5% methanol, and recovered in methanol with 2% formic acid. Solvent was subsequently removed in a blowdown evaporator with gentle heat and a stream of nitrogen gas. The final product was verified and characterized by high performance liquid chromatography (HPLC).
This example illustrates accumulation of peptides of the present disclosure in kidneys measured by whole body autoradiography. Peptides of the present disclosure were radiolabeled as described in EXAMPLE 2. 100 nmol of ^14C labeled peptides were administered intravenously in mice. Radiolabeled peptide signal was quantified in the renal cortex and blood from the ventricle in 2-3 sections per mouse in 2 mice total. Whole body autoradiography analysis was performed with AIDA.
SEQ ID NO: 55 and SEQ ID NO: 119 ([…]), a linearized version of SEQ ID NO: 55, were radiolabeled with ^14C as described in EXAMPLE 2 and administered intravenously in mice at a dose of 100 nmol. Radiolabeled peptide signal was quantified in the renal cortex and blood from the ventricle in 2-3 sections per mouse in 2 mice total. Whole body autoradiography analysis was performed with AIDA.

Another data set deals with trypsin. As to the kind of experiment: Peptide stability in the presence of trypsin, RP-HPLC. Type of data set: in vitro ADME. To be noted: 5 μg trypsin, pH 7.0, 30 minutes at 37.5° C. As to the method:
(§1) This example describes peptide stability in the presence of pepsin, trypsin, a reducing agent, or elevated temperature. Peptides were first suspended in 500 µl of ddH2O to a stock concentration of 2 mg/ml. […] These reactions were then quenched with 5 μg of soybean trypsin inhibitor (I) and, in some cases, 10 mM dithiothreitol (DTT). […] Temperature stability was tested by incubating peptides in non-reducing conditions at 70° C. for 1 hour. Stability was evaluated by RP-HPLC.

Data set [2] can be described thus: Peptide stability to a reducing agent (DTT), RP-HPLC. Format: physicochemical. Particulars: 10 mM DTT in PBS, room temperature, 30 minutes. As for the experimental part: as §1
Another data set deals with pepsin. Nature of the data set: Peptide stability in the presence of pepsin, RP-HPLC. Format: in vitro ADME. To be noted: 20 μg pepsin, pH 1.05, 30 minutes at 37.5° C. As to the method: as §1
The nature of data set [3]: Temperature stability at 70° C., RP-HPLC. Type of data set: physicochemical. To be noted: non-reducing conditions, 70° C. for 1 hour. As to the method:
as §1

For “GSSERDCIRHLQRCRENRDCCSRRCSRRGTNPERRCR [SEQ ID NO: 56]”, in data set [1], the “Signal ratio Kidney:Blood (3 hours)” value was 29.9, the “Signal ratio Kidney:Blood (24 hours)” value is 7.5, the “Pixel density-Bkg/area (3 hours)” value was 1.48E+07 and the “Pixel density-Bkg/area (24 hours)” value was 2.30E+06.
Regarding “GSGDCLPHLRRCRENNDCCSRRCRRRGANPERRCR [SEQ ID NO: 59]”, in data set [1], the “Signal ratio Kidney:Blood (3 hours)” value was found to be 31.2, the “Signal ratio Kidney:Blood (24 hours)” value is 6.1, the “Pixel density-Bkg/area (3 hours)” value turned out to be 3.47E+07 and the “Pixel density-Bkg/area (24 hours)” value was 2.13E+06.
For “GSNCAGYMRECKEKLCCSGYVCSSRWKWCVLPAPWRR [SEQ ID NO: 25]”, in the data set on trypsin, the Trypsin result is given as “Partially Resistant”. In data set [2], the Reduction entry is on record as “Not Resistant”.
Taken in the same sequence, the figures for “GSAEIIRCSGTRECYAPCQKLTGCLNAKCMNKACKCYGCV [SEQ ID NO: 28]” were “Not Resistant” and “Partially Resistant”.
As to “GSVVIGQRCYRSPDCYSACKKLVGKATGKCTNGRCDC [SEQ ID NO: 33]”, the Trypsin result in the data set with trypsin was “Not Resistant”. Further, the Reduction entry in data set [2] is “Not Resistant”. Moreover, in the data set with pepsin, the Pepsin result is given as “Resistant”. In data set [3], the “Temperature (70° C.)” value is reported as “Resistant”.
Regarding “GSGVPINVKCRGSRDCLDPCKKAGMRFGKCINSKCHCTP [SEQ ID NO: 11]”, the Trypsin result in the data set on trypsin was “Resistant”. Besides, in data set [2], the Reduction entry is reported as “Resistant”. Further, the Pepsin entry in the data set on pepsin is recorded as “Resistant”.
Consider “GSACLAEYQKCEGSTVPCCPGLSCSAGRFRKTKLCTK [SEQ ID NO: 32]”, for which the Trypsin result with trypsin is “Not Resistant”. Moreover, in data set [2], the Reduction result is reported as “Not Resistant”. For the same sequence, the Pepsin result in the data set on pepsin was “Resistant”. The “Temperature (70° C.)” value in data set [3] is recorded as “Resistant”.
Consider “GSSDYCSNDFCFFSCRRDRCARGDCENGKCVCKNCHLN [SEQ ID NO: 29]”, for which the Trypsin result in the data set on trypsin is on record as “Partially Resistant”. Besides, the Reduction entry in data set [2] is “Not Resistant”.
Turning to “GSQIDTNVKCSGSSKCVKICIDRYNTRGAKCINGRCTCYP [SEQ ID NO: 27]”, the Trypsin entry with trypsin is “Not Resistant”. In data set [2], the Reduction entry is on record as “Not Resistant”. Besides, the Pepsin result in the data set on pepsin is “Not Resistant”. For the same sequence, the “Temperature (70° C.)” value in data set [3] is reported as “Resistant”.
As to “GSGVPINVRSRGSRDSLDPSRRAGMRFGRSINSRSHSTP [SEQ ID NO: 119, reference compound]”, in data set [1], the “Signal ratio Kidney:Blood (3 hours)” value amounted to 5.1, the “Signal ratio Kidney:Blood (24 hours)” value was determined as 6.9, the “Pixel density-Bkg/area (3 hours)” value stood at 1.71E+06 and the “Pixel density-Bkg/area (24 hours)” value is 2.41E+06.
Regarding “GSACQFWSCNSSCISRGYRQGYCWGIQYKYCQCQ [SEQ ID NO: 34]”, the Trypsin result in the data set with trypsin is recorded as “Partially Resistant”. For the same sequence, in data set [2], the Reduction entry is “Not Resistant”.
With “GSSCAKPRENCNRMNILCCRGECVCPTFGDCFCYGD [SEQ ID NO: 10]”, the Trypsin result with trypsin is given as “Not Resistant”. The Reduction result in data set [2] is reported as “Not Resistant”. Besides, the Pepsin entry in the data set with pepsin is reported as “Resistant”. The “Temperature (70° C.)” value in data set [3] is on record as “Resistant”.
Take “GSAVCNLKRCQLSCRSLGLLGKCIGDKCECVKHG [SEQ ID NO: 22]”: in the data set with trypsin, the Trypsin entry was “Partially Resistant”. In addition, the Reduction entry in data set [2] is on record as “Not Resistant”.
On the same counts, the results for “GSQVSTNKKCSNTSQCYKTCEKVVGVAAGKCMNGKCICYP [SEQ ID NO: 37]” are “Partially Resistant” and “Not Resistant”.
On the same counts, the results for “GSRPTDIKCSASYQCFPVCKSRFGKTNGRCVNGLCDCF [SEQ ID NO: 24]” are “Partially Resistant” and “Resistant”.
Taken in the same sequence, the figures for “GSSCAKPGEMCMRIKCCDGQCGCNRGTGRCFCK [SEQ ID NO: 31]” were “Partially Resistant” and “Not Resistant”.
Take “GSECLEIFKACNPSNDQCCKSSKLVCSRKTRWCKYQIG [SEQ ID NO: 38]”: the Trypsin entry in the data set with trypsin is listed as “Not Resistant”. For the same sequence, the Reduction entry in data set [2] was “Not Resistant”. In addition, the Pepsin entry in the data set with pepsin was “Resistant”. Moreover, in data set [3], the “Temperature (70° C.)” value was “Resistant”.
For the sequence “GSQVQTNVRCQGGSCASVCRREIGVAAGRCINGRCVCYRN [SEQ ID NO: 58]”, in data set [1], the “Signal ratio Kidney:Blood (3 hours)” value amounted to 9.9, the “Signal ratio Kidney:Blood (24 hours)” value turned out to be 4.1, the “Pixel density-Bkg/area (3 hours)” value was determined as 7.73E+06 and the “Pixel density-Bkg/area (24 hours)” value is 1.30E+06.
Regarding “GSVRIPVSCKHSGQCLKPCKDAGMRFGKCMNGKCDCTPK [SEQ ID NO: 12]”, the Trypsin entry in the data set on trypsin was “Not Resistant”. Further, the Reduction result in data set [2] was “Partially Resistant”.
Taken in the same sequence, the figures for “GSQFCGTNGKPCVNGQCCGALRCVVTYHYADGVCLKMNP [SEQ ID NO: 23]” were “Partially Resistant” and “Not Resistant”.
In the case of “GSVRIPVSCRHSGQCLRPCRDAGMRFGRCMNGRCDCTPR [SEQ ID NO: 57]”, in data set [1], the “Signal ratio Kidney:Blood (3 hours)” value was 8, the “Signal ratio Kidney:Blood (24 hours)” value is recorded as 6.4, the “Pixel density-Bkg/area (3 hours)” value was found to be 4.63E+06 and the “Pixel density-Bkg/area (24 hours)” value is 1.03E+06.
For “GSNFKVEGACSKPCRKYCIDKGARNGKCINGRCHCYY [SEQ ID NO: 19]”, the Trypsin result in the data set on trypsin is “Partially Resistant”. Also, the Reduction entry in data set [2] is recorded as “Not Resistant”.
On the same counts, the results for “GSDCLPHLRRCRADNDCCGRRCRRRGTNAERRCR [SEQ ID NO: 1]” are “Partially Resistant” and “Not Resistant”.
On the same counts, the results for “GSQVQTNVKCQGGSCASVCRREIGVAAGKCINGKCVCYRN [SEQ ID NO: 17]” are “Partially Resistant” and “Not Resistant”.
As for “GSGCFGYKCDYYKGCCSGYVCSPTWKWCVRPGPGR [SEQ ID NO: 16]”, the Trypsin result in the data set with trypsin was “Not Resistant”. Moreover, in data set [2], the Reduction entry is “Not Resistant”. Besides, in the data set with pepsin, the Pepsin entry is recorded as “Not Resistant”. In addition, in data set [3], the “Temperature (70° C.)” value is “Resistant”.
Regarding “GSISIGIKCSPSIDLCEGQCRIRKYFTGYCSGDTCHCSG [SEQ ID NO: 7]”, the Trypsin entry with trypsin was “Partially Resistant”. In data set [2], the Reduction entry is “Not Resistant”. The “Temperature (70° C.)” value in data set [3] is reported as “Resistant”.
“GSGVPINVRCRGSRDCLDPCRRAGMRFGRCINSRCHCTP [SEQ ID NO: 55]”: in data set [1], the “Signal ratio Kidney:Blood (3 hours)” value is 42.2 and 42.4; the “Signal ratio Kidney:Blood (24 hours)” value is on record as 10.7; the “Pixel density-Bkg/area (3 hours)” value was determined as 2.73E+07; the “Pixel density-Bkg/area (24 hours)” value came out at 2.25E+06.
Take “GSCIGEGVPCDENDPRCCFGLVCLKPTLHGIWYKSYYCYKK [SEQ ID NO: 30]”: the Trypsin entry in the data set with trypsin was “Partially Resistant”. Also, the Reduction result in data set [2] was “Not Resistant”.
With “GSEVIRCSGSKQCYGPCKQQTGCTNSKCMNKVCKCYGCG [SEQ ID NO: 8]”, the Trypsin result in the data set on trypsin is on record as “Partially Resistant”. Also, in data set [2], the Reduction entry is “Not Resistant”. For the same sequence, the “Temperature (70° C.)” value in data set [3] is recorded as “Resistant”.
In the case of “GSSEKDCIKHLQRCRENKDCCSKKCSRRGTNPEKRCR [SEQ ID NO: 9]”, the Trypsin result in the data set on trypsin is listed as “Partially Resistant”. Besides, in data set [2], the Reduction result is listed as “Not Resistant”.
